{"source": "paper PMC8764033", "about": "“Single-molecule analysis of specificity and multivalency in binding of short linear substrate motifs to the APC/C” (Nature Communications, 2022)", "key": {"APC/C^Cdc20": {"biological_target": "T1, APC/C^Cdc20 (Saccharomyces cerevisiae, UniProt P26309+P53068)", "T1 construct": "APC/C was purified from yeast cells; made in house; host or cells: APC/C from S. cerevisiae W303 strain NHY13 (Cdc16-TAP, Apc1-GFP, cdh1 deleted); Cdc20 from Sf9 (baculovirus)", "experiment": "SMOR assay, yeast APC/C^Cdc20", "type": "binding", "settings": "for mean dwell time: representative of two independent experiments, ± SE, ligand ≤1 nM, buffer C + BSA", "description": "(§1) Yeast strains were derivatives of W303 and are listed in Supplementary Table 2. For APC/C purification, we used a strain carrying Cdc16-TAP and lacking Cdh1 (DOM1126); in most experiments, the strain also carried Apc1-GFP (NHY13). Yeast were grown in YPD media to OD600 = 0.8, collected and flash-frozen. Cells were lysed by bead beating in lysis buffer A (50 mM HEPES pH 7.5, 150 mM KCl, 10% glycerol, 0.2% Triton X-100, 63 µM B-glycerophosphate, 48 µM sodium fluoride, 1 µg ml^−1 pepstatin A, 1 µg ml^−1 leupeptin, 1 µg ml^−1 aprotinin, 1 mM PMSF, 1 mM DTT, 0.5 mM EDTA) and APC/C was purified using magnetic IgG beads. The beads were washed using wash buffer A (20 mM HEPES pH 7.5, 150 mM KCl, 10% Glycerol, 0.05% Triton X-100). After incubation with purified Cdh1 or Cdc20, the APC/C was cleaved off the beads with TEV protease in wash buffer A with 0.05% Tween-20 (for single-molecule studies) or 0.05% Triton X-100 (for ensemble assays such as ubiquitylation) and used immediately.\n(§2) For all SMOR experiments, 24 × 50 mm high precision glass coverslips (Bioscience Tools) and drilled microscope slides were passivated with a combination of PEG and PEG-biotin (coverslips) or PEG only (slides) following a previously published protocol for SiMPull[31]. Reaction chambers (~20 µl) were created using double-sided tape and epoxy. Protein was immobilized on the surface with 0.2 mg ml^−1 NeutrAvidin in buffer C (20 mM HEPES pH 7.5, 150 mM KCl, 10% glycerol, 0.05% Tween-20, 1 mM DTT). Excess NeutrAvidin was washed away and incubated with either biotin-conjugated mouse monoclonal anti-Strep-Tag II antibody (LSBio, Cat. No. LS-C203632-100) or biotin-conjugated rabbit polyclonal anti-GFP antibody (Rockland, Cat. No. 600-406-215) diluted in buffer C + BSA (0.1 mg ml^−1; Molecular Biology Grade Bovine Serum Albumin). Activator WD40 and activated APC/C (typically 50 µl containing about 65 ng APC/C, of which only a small fraction is immobilized on the glass) were immobilized using anti-Strep-Tag II, while APC/C alone was immobilized with anti-GFP. SMOR results were similar when performed in the buffer (wash buffer B) used in polarization anisotropy.\nTo capture dynamic protein–protein interactions, dye-labeled substrate diluted in buffer C + BSA was added to the chamber containing immobilized proteins. Interactions were imaged by TIRF microscopy as described below. For optimal signal-to-noise ratio, peptide concentration was no greater than 1 nM. Protein substrates included Hsl1 aa 667–872 and a C-terminal HaloTag followed by a TAP tag, and were produced by translation in rabbit reticulocyte lysates using TnT Quick Coupled Transcription/Translation System (Promega) (see Supplementary Table 5 for plasmids). Protein was purified with magnetic IgG beads and labeled on the bead with JF549 or JF646 dye so that unbound dye could be washed away. Purified dye-labeled protein was then cleaved from the beads using TEV protease. Before adding substrate to the reaction chamber, oxygen scavenging reagents were added (10 nM protocatechuate-3,4-dioxygenase, 2.5 mM protocatechuic acid, and 1 mM Trolox)[41]. A detailed description of the SMOR analysis pipeline is found in Supplementary Note 1.\nMicroscopy was performed with a Nikon Eclipse TE2000-E with Perfect Focus with a 100 × 1.49na oil, Apo TIRF DIC N2, 0.13-0.2, WD0.12 objective. Movies were recorded using the Andor iXon DU-897E-CSO. For visualizing GFP-tagged protein, a 491 nm laser was used with an ET525/50 (Chroma) filter for emission. […]"}, "APC/C^Apc10-4A, Cdh1": {"test_system": "APC/C^Apc10-4A, Cdh1", "sequence (P53197 whole entry)": "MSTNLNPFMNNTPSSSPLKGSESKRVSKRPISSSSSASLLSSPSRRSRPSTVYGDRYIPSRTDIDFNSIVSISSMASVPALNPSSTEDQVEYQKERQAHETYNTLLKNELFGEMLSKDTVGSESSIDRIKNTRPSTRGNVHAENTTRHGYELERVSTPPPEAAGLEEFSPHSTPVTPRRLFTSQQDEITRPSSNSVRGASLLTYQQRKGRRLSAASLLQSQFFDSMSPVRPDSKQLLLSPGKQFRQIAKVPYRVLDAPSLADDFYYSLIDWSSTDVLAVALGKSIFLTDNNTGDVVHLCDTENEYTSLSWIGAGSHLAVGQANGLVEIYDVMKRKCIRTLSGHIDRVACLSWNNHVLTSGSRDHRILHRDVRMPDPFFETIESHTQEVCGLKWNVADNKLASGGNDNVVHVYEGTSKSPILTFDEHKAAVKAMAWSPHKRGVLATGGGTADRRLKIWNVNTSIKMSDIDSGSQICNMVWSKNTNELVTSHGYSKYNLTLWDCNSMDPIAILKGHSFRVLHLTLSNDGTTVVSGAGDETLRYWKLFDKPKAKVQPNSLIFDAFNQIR", "experiment": "SMOR assay, yeast APC/C^Apc10-4A, Cdh1", "type": "binding, Saccharomyces cerevisiae", "description": "as §1, §2\n(§3) To capture dynamic protein–protein interactions, dye-labeled substrate diluted in buffer C + BSA was added to the chamber containing immobilized proteins. Interactions were imaged by TIRF microscopy as described below. For optimal signal-to-noise ratio, peptide concentration was no greater than 1 nM. […]\n(§4) Microscopy was performed with a Nikon Eclipse TE2000-E with Perfect Focus with a 100 × 1.49na oil, Apo TIRF DIC N2, 0.13-0.2, WD0.12 objective. Movies were recorded using the Andor iXon DU-897E-CSO. […]"}, "APC/C^Apc10-4A, Cdc20": {"test_system": "APC/C^Apc10-4A, Cdc20", "sequence (P26309 whole entry)": "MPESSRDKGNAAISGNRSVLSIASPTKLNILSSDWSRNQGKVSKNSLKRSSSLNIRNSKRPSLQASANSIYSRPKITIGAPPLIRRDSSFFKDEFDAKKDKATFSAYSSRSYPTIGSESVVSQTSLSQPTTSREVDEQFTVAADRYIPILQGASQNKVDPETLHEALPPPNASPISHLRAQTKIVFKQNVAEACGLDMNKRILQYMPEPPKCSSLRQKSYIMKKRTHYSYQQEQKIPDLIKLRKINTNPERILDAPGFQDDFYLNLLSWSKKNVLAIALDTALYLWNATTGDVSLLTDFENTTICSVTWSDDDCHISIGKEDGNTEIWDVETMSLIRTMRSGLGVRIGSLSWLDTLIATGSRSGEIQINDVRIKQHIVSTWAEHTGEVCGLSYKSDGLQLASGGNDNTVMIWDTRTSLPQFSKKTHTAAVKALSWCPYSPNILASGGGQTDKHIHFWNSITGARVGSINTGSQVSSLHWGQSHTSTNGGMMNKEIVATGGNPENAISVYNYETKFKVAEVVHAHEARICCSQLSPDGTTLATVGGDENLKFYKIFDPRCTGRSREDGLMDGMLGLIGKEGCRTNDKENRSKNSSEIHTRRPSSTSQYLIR", "experiment": "SMOR assay, yeast APC/C^Apc10-4A, Cdc20", "type": "binding, Saccharomyces cerevisiae", "description": "as §1, §2, §3, §4"}, "[1]": {"settings": "Supplementary Table 1, replicate 1 (movie listed first)"}, "[2]": {"settings": "Supplementary Table 1, replicate 2 (movie listed second)"}, "[3]": {"settings": "representative of two independent experiments, ± SE, ligand ≤1 nM, buffer C + BSA"}}, "note": "Values joined by “and” are separate entries in the source; they are usually repeats but may differ in a detail not shown here. Equal values may be shown once. “Also recorded” adds a separate entry of the source.", "data": [{"molecule": "Hsl1^Halo KEN & D: Hsl1 fragment (amino acids 667–872) with C-terminal HaloTag, JF549-labeled (protein, JF549 or JF646 dye covalently bound to the HaloTag; left off: HaloTag, C-terminal, kept | TAP, C-terminal, cleaved, Hsl1 fragment (amino acids 667–872) with C-terminal HaloTag, JF549-labeled) QNSASKRSLYSLQSISKRSLNLNDLLVFDDPLPSKKPASENVNKSEPHSLESDSDFEILCDQILFGNALDRILEEEEDNEKERDTQRQRQNDTKSSADTFTISGVSTNKENEGPEYPTKIEKNQFNMSYKPSENMSGLSSFPIFEKENTLSSSYLEEQKPKRAALSDITNSFNKMNKQEGMRIEKKIQREQLQKKNDRPSPLKPIQ", "values": [{"measurement": "fold lower affinity/dwell time with APC/C^Cdc20 than with APC/C^Cdh1 (preference for APC/C^Cdh1)", "setting": "APC/C^Cdc20", "result": 600, "unit": "fold"}, {"measurement": "Dwell Time", "setting": "APC/C^Cdc20; [1]", "result": "0.518 ± 0.032", "unit": "s"}, {"measurement": "Dwell Time", "setting": "APC/C^Cdc20; [2]", "result": "0.396 ± 0.027", "unit": "s"}, {"measurement": "mean dwell time", "setting": "APC/C^Cdc20", "result": "0.518 ± 0.03 s and 0.518 s"}, {"measurement": "mean dwell time", "setting": "APC/C^Cdc20; listed as Hsl1 fragment", "result": "0.518 ± 0.03", "unit": "s"}, {"measurement": "binding (in words)", "setting": "APC/C^Apc10-4A, Cdh1", "result": "This boost in affinity was not seen in the Apc10-4A mutant"}, {"measurement": "Dwell Time", "setting": "APC/C^Apc10-4A, Cdh1; [1]", "result": "42.881 ± 2.489", "unit": "s"}, {"measurement": "Dwell Time", "setting": "APC/C^Apc10-4A, Cdh1; [2]", "result": "75.919 ± 3.159", "unit": "s"}, {"measurement": "mean dwell time", "setting": "APC/C^Apc10-4A, Cdh1; [3]", "result": "75.9 ± 3 s and 75.9 s"}, {"measurement": "binding (in words)", "setting": "APC/C^Apc10-4A, Cdc20", "result": "the Apc10-4A mutations only slightly reduced Hsl1 dwell time with APC/C^Cdc20; also recorded: only slightly reduced by mutation of Apc10"}, {"measurement": "Dwell Time", "setting": "APC/C^Apc10-4A, Cdc20; [1]", "result": "0.449 ± 0.014", "unit": "s"}, {"measurement": "Dwell Time", "setting": "APC/C^Apc10-4A, Cdc20; [2]", "result": "0.372 ± 0.027", "unit": "s"}, {"measurement": "mean dwell time", "setting": "APC/C^Apc10-4A, Cdc20; [3]", "result": 0.449, "unit": "s"}]}]}
